The results in this text go back to patent US20250277050A1 (MEDICAL COLLEGE OF WISCONSIN, published 2025).

For assay [1], the target named is T1, human CD30 expressed on the cell surface (human, UniProt P28908 19-595).
T1 construct: whole, on cells; also called huCD30; cell-surface expressed CD30
T1 sequence (looked up): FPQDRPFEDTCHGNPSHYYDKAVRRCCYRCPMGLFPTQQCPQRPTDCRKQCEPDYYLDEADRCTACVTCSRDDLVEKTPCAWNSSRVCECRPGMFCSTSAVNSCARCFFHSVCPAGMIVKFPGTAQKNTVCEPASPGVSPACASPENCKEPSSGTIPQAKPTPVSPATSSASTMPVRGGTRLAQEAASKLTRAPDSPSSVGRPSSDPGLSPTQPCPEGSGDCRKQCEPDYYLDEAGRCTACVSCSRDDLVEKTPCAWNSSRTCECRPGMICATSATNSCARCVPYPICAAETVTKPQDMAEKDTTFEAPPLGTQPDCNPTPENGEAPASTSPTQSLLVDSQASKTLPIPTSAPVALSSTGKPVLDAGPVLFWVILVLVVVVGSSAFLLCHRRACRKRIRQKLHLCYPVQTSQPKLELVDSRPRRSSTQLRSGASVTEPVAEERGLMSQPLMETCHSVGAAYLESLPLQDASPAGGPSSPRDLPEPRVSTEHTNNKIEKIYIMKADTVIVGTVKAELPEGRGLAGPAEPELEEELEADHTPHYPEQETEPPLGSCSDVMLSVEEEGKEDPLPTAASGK
Nature of the assay: flow cytometry, purified antibody on cells with CD30 surface expression. On the technique in general: A flow cytometer gives signals particle by particle.

The target in assay [2] is T1, human CD30 expressed on the cell surface. Kind of assay: flow cytometry on CD30+ and CD30- cell lines. As to the method:
Flow cytometry analysis was preformed using purified antibody on CD30+ cell lines (SU-DHL-1, RPMI6666, […]) and a CD30− cell line (OCIAML2). A commercially available α-huCD30 antibody (clone BY88) and an isotype control were also tested.
We have employed hybridoma technology to generate novel murine anti-human CD30 mAbs. Mice were immunized and boosted with purified human GST-tagged CD30. Mouse spleen cells were then harvested and fused with myeloma cells to generate antibody secreting hybridoma. Hybridoma supernatants were screened for specificity to purified CD30 protein by ELISA, and GST specific clones were eliminated. […] Specific binding of our mAbs to cell-surface expressed CD30 was assessed by flow cytometry (FIG. 1) using 293T cells (CD30−), lentiviral transduced 293T cells expressing huCD30, and K562 cells which are naturally CD30+. The 293T (CD30−), 293T LV huCD30 (transduced with human CD30), SU-DHL-1 (lymphoma), RPMI.6666 (lymphoma) or K562 (CML) cell lines were incubated with each antibody in the form of unpurified hybridoma supernatant, and then incubated with an Alexa Fluor 647-labeled anti-mouse IgG antibody. Cell-associated fluorescence was determined by FACS.

Changes are numbered by the printed parent chain.

B1: 15B8 (antibody, V domains shown)
VH: QVQLEQSGTELVKPGASVKLSCKASGYTFTSYWMHWVKQRPGQGLEWIGNINPSNGGTNYNEKFKSKATLTVDKSSSTAYMQLSSLTSEDSAIYYCARRNNYYASSPFAYWGQGTLVSVSA
VL: DIVMTQTPASLSASVGETVTITCRASGNIHNYLAWYQQKQGKSPQLLVYNAKTLADGVPSRFSGSGSGTQYSLKINSLQPEDFGSYYCQHFWSTPFTFGSGTKLEIK
notes: Murine anti-human CD30 monoclonal antibody from a hybridoma, detected with anti-mouse IgG; also called monoclonal antibody 15B8
Turning to B1, in assay [1], the binding result is listed as “binds”.

B2: 12B1 (antibody, V domains shown)
VH: EVKLEESGTELVKPGASVKLSCKASGYTFTSYWMHWVKQRPGQGLEWIGNINPTNGGTNYNEKFKSKATLTVDKSSRTAYMQLSSLTSGDSAVYYCARRDFITTSGFAYWGQGTLVTVSA
VL: B1 VL with P8T, A13T, I29L, N31S, A34T, N76D, S93T
notes: Murine anti-human CD30 monoclonal antibody from a hybridoma, detected with anti-mouse IgG; also called monoclonal antibody 12B1
With B2, the binding result in assay [2] was “binds”.

B3: 13H1 (antibody, V domains shown)
VH: QVQLQQSGTELVKPGASVKLSCKASGHTFTSYWMHWVKQRPGQGLEWIGNINPSNGGTNYNEKFKSKATLTVDKSSSTAYMQLSSLTSEDSAVYYCARRGYYGSSSYWSFDVWGTGTTVTVSS
VL: DIVMTQTPKSMSMSVGERVTLSCKASENVGTYVSWYQQKPEQSPKVLIYGASNRFTGVPDRFTGSGSATDFTLTISSVQTEDLADYHCGQSYSYPLTFGAGTKLELK
notes: Murine anti-human CD30 monoclonal antibody from a hybridoma, detected with anti-mouse IgG; also called monoclonal antibody 13H1
For the molecule B3, in assay [2], the binding result is given as “binds”.

B4: 8D10 (antibody, V domains shown)
VH: QVQLQESGTELVKPGASVKLSCKASGYTFTSYWMHWMKQRPGQGLEWIGNINPSNGGTNYNEKFKNKATLTVDKSSSTAYMQLSSLTSEDSAVYYCARRDYYYGSSYGFDVWGTGTTVTVSS
VL: DIVMTQSPASQSASLGESVTITCLASQTIGTWLAWYQQKPGKSPQFLIYAATSLADGVPSRFSGSGSGTKFSFKISSLQAEDFVSYYCQQLYSTPFTFGGGTKLEIK
notes: Murine anti-human CD30 monoclonal antibody from a hybridoma, detected with anti-mouse IgG; also called monoclonal antibody 8D10; anti-CD30 mAb 8D10
With B4, the binding result in assay [2] is recorded as “binds”.

B5: 10C2 (antibody, V domains shown)
VH: QVQLEQSGPVLVKPGASVKMSCKASGYTFTDYYMNWVKQSHGKSLEWIGVINPYNGGTSYNQKFKGKATLTVDKSSSTACMELNCLTSEDSAVYYCTLGAYWGQGTSVTVSS
VL: not shown
notes: Murine anti-human CD30 monoclonal antibody from a hybridoma, detected with anti-mouse IgG; also called monoclonal antibody 10C2; anti-CD30 mAb 10C2
Consider B5, for which the binding result in assay [2] is on record as “binds”.
